Source: paper PMC4493011, “The Cold Shock Domain of YB-1 Segregates RNA from DNA by Non-Bonded Interactions”

Assays:
Conditions in all cases: protein: recombinant; single strand
YB-1 (full-length) [1] = biological target: T1, YB-1 (full-length) (human, UniProt P67809 1-324); experiment: EMSA; apparent Kd, protein concentration at 50% saturation; 7 pmol DNA in 10 ul; 10 mM Hepes-KOH pH 7.6, 100 mM KCl, 30 C, 15 min, 10 ul; 8% native PAGE in TBE, silver staining
[2] = biological target: T2, YB-1 cold shock domain (CSD) (human, UniProt P67809 51-129); experiment: as above
T2 sequence (P67809 51-129): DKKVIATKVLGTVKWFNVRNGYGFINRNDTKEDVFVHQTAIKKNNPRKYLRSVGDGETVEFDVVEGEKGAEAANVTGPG

YB-1 (full-length) [3] = biological target: T1, YB-1 (full-length); experiment: EMSA; apparent Kd, protein concentration at 50% saturation; 7 pmol RNA in 10 ul; 10 mM Hepes-KOH pH 7.6, 100 mM KCl, 30 C, 15 min, 10 ul; 8% native PAGE in TBE, silver staining
[4] = biological target: T2, YB-1 cold shock domain (CSD); experiment: as above

T1 sequence (P67809 whole entry, the tested form may be a part): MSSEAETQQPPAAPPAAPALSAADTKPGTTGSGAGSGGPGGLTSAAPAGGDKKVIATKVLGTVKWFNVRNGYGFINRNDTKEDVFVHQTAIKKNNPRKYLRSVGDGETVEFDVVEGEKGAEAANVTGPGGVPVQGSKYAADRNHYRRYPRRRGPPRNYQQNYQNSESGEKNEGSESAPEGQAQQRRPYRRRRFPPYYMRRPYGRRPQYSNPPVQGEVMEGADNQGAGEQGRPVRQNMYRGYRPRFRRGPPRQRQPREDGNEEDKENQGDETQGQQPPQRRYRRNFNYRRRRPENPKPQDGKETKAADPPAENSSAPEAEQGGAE

Row | Binder | Kd (YB-1 (full-length) [1]) [µM] | Kd [2] [µM] | Kd (YB-1 (full-length) [3]) [µM] | Kd [4] [µM]
1 | AGGATGGGTGAGTGAGGTAG (ssDNA) [G-rich DNA 20-mer] | 0.6 | 6 |  | 
2 | AGGAUGGGUGAGUGAGGUAG (ssRNA) [G-rich RNA 20-mer] |  |  | 0.3 | 2.5
